Reference: patent US11912777 (NANJING LEADS BIOLABS, dated 2024)

Columns and labels:
[1] = target: T1, human TNFR2, mouse Fc-tag (human); assay: ELISA, huTNFR2-mFc coated
T1 construct: also called hTNFR2-mFc; huTNFR2-mFc
T1 chain: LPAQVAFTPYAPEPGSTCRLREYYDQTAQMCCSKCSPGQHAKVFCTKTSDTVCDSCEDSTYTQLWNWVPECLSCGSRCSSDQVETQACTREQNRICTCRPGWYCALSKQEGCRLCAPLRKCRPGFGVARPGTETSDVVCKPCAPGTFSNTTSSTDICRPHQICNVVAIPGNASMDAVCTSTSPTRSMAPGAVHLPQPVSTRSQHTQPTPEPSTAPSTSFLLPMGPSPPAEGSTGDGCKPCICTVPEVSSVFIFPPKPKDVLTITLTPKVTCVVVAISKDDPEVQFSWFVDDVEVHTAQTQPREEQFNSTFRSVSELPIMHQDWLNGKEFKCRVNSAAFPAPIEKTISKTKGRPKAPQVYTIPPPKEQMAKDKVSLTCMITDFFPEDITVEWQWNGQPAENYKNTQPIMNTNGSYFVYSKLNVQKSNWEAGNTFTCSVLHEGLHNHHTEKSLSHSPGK

[2] = target: T2, mouse TNFR2 variant 019-1 (human segment 17T-54D) (mouse with a human segment); assay: ELISA, TNFR2 variant coated at 0.5 µg/mL
T2 construct: Mouse TNFR2 extracellular domain with the human segment, followed by a human Fc

[3] = target: T3, mouse TNFR2 variant 019-2 (human segment 56S-97C) (mouse with a human segment); assay: ELISA, TNFR2 variant coated at 0.5 µg/mL
T3 construct: Mouse TNFR2 extracellular domain with the human segment, followed by a human Fc

[4] = target: T4, mouse TNFR2 variant 019-3 (human segment 98T-141K) (mouse with a human segment); assay: ELISA, TNFR2 variant coated at 0.5 µg/mL
T4 construct: Mouse TNFR2 extracellular domain with the human segment, followed by a human Fc

[5] = target: T5, mouse TNFR2 variant 019-4 (human segment 143P-181T) (mouse with a human segment); assay: ELISA, TNFR2 variant coated at 0.5 µg/mL
T5 construct: Mouse TNFR2 extracellular domain with the human segment, followed by a human Fc

[6] = target: T6, mouse TNFR2 variant 019-5 (human segment 39G-75C) (mouse with a human segment); assay: ELISA, TNFR2 variant coated at 0.5 µg/mL
T6 construct: Mouse TNFR2 extracellular domain with the human segment, followed by a human Fc

[7] = target: T7, mouse TNFR2 variant 019-6 (human segment 76G-121K) (mouse with a human segment); assay: ELISA, TNFR2 variant coated at 0.5 µg/mL
T7 construct: Mouse TNFR2 extracellular domain with the human segment, followed by a human Fc

[8] = target: T8, mouse TNFR2 variant 019-0.5-1 (human segment 17T-31C) (mouse with a human segment); assay: ELISA, TNFR2 variant coated at 0.5 µg/mL
T8 construct: Mouse TNFR2 extracellular domain with the human segment, followed by a human Fc

[9] = target: T9, mouse TNFR2 variant 019-0.5-2 (human segment 1L-16S) (mouse with a human segment); assay: ELISA, TNFR2 variant coated at 0.5 µg/mL
T9 construct: Mouse TNFR2 extracellular domain with the human segment, followed by a human Fc; also called 019-0-0.5-2

S16A = target: T10, S16A; assay: ELISA on coated human TNFR2 mutant S16A; lower panel
T10 construct: also called human TNFR2 S16A
T10 receptor: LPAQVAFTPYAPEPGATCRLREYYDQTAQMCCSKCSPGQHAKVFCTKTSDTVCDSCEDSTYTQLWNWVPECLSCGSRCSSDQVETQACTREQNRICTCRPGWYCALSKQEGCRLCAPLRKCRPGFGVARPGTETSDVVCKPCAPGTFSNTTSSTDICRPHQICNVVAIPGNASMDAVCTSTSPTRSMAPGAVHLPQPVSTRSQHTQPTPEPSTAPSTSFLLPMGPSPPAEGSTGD

[10] = target: T11, mouse TNFR2 variant 019-0-1 (human segment 1L-54D) (mouse with a human segment); assay: ELISA on coated variant 019-0-1, epitope mapping; upper panel
T11 construct: Mouse TNFR2 extracellular domain with the human segment, followed by a human Fc

[11] = target: T12, cynomolgus monkey TNFR2 expressed on the cell surface of 293T cells (cynomolgus monkey, UniProt P20333 23-283 (human entry)); assay: flow cytometry on 293T cells expressing cynomolgus TNFR2; left panel; unit from the axis
T12 construct: the entry ends shortly after the transmembrane stretch and includes the signal peptide; also called CynoTNFR2; cynomolgus TNFR2 on cell surface
T12 chain: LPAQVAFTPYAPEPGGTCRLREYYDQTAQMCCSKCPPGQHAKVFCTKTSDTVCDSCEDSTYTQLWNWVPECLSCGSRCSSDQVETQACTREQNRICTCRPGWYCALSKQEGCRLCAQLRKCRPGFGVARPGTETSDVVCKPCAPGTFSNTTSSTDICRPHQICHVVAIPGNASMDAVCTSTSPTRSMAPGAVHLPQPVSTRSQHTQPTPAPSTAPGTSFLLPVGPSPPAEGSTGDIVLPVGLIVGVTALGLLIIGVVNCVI

TNFR2 = assay: ELISA on coated TNFR2, positive control of the TNFR superfamily cross-binding test; lower panel
[12] = target: T13, human TNFR2 expressed on the cell surface of 293T cells (human, UniProt P20333 23-461); assay: flow cytometry, blocking of Biotin-TNF-alpha binding to human TNFR2 on 293T cells; right panel; unit from the axis
T13 construct: also called HuTNFR2; human TNFR2 on cell surface
T13 sequence: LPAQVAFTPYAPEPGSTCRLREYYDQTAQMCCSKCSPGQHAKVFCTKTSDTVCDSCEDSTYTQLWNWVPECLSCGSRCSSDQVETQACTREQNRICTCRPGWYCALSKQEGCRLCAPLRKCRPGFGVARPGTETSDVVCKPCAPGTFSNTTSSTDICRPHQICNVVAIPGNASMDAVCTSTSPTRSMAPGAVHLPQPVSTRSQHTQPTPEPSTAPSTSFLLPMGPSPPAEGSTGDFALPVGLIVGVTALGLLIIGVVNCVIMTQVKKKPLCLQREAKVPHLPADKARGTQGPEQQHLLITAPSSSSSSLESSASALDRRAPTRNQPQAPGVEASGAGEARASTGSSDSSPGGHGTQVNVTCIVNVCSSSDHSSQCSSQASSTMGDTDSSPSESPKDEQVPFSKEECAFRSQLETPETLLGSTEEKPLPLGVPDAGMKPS

[13] = target: T1, human TNFR2, mouse Fc-tag; assay: blocking ELISA: hTNFR2-mFc mixed with antibody, binding to coated TNF-alpha his tag; right panel; unit from the axis [b]

T4 sequence (chain, as listed by the source mutant limits assumed): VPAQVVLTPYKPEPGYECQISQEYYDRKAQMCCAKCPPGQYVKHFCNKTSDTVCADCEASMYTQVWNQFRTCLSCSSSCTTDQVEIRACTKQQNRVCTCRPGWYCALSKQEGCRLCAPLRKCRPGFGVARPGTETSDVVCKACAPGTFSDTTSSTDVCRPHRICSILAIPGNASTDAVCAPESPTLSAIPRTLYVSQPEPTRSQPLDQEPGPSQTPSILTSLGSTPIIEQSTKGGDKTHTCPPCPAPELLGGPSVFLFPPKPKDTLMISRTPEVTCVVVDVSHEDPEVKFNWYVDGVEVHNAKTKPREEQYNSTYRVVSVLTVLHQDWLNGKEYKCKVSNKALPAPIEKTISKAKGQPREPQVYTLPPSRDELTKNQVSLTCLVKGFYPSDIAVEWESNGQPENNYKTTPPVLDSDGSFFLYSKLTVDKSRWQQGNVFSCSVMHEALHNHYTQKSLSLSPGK
T7 sequence (chain, as listed by the source mutant limits assumed): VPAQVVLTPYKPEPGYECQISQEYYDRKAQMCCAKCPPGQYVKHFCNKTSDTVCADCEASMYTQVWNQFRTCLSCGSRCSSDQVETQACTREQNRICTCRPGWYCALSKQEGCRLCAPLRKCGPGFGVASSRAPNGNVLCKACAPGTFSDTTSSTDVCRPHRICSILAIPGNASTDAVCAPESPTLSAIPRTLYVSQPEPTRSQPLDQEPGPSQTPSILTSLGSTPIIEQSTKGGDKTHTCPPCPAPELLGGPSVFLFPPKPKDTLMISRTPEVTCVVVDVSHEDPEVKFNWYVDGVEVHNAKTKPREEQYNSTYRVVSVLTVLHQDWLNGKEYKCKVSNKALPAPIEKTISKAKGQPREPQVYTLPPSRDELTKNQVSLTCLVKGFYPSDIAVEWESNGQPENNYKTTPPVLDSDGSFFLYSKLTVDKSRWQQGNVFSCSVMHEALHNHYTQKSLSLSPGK
T9 sequence (chain, as listed by the source mutant limits assumed): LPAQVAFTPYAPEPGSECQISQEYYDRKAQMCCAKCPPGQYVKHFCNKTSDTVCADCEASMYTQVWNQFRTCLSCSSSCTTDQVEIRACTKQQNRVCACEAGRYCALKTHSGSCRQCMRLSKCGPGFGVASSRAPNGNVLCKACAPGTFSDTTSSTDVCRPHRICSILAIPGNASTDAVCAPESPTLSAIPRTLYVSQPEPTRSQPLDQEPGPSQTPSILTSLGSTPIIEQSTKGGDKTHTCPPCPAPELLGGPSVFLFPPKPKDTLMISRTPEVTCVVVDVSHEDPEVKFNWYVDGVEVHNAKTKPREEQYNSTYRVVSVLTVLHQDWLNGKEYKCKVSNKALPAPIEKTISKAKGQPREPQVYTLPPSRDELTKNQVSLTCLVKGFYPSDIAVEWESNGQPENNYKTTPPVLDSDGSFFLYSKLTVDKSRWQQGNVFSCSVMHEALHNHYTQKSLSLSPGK
T3 sequence (chain, as listed by the source mutant limits assumed): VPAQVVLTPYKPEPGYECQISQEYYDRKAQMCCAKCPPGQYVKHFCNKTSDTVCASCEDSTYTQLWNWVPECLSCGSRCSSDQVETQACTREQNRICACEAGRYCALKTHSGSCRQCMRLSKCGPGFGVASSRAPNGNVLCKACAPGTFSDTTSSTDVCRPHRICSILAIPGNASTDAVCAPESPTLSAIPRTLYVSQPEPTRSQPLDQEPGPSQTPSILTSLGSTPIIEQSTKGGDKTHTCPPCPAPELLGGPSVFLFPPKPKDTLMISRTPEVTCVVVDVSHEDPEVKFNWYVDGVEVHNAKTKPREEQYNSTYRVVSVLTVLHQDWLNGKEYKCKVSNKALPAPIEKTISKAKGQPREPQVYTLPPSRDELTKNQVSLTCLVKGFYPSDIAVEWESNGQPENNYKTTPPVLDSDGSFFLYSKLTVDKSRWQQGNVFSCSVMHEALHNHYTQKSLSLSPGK
T8 sequence (chain, as listed by the source mutant limits assumed): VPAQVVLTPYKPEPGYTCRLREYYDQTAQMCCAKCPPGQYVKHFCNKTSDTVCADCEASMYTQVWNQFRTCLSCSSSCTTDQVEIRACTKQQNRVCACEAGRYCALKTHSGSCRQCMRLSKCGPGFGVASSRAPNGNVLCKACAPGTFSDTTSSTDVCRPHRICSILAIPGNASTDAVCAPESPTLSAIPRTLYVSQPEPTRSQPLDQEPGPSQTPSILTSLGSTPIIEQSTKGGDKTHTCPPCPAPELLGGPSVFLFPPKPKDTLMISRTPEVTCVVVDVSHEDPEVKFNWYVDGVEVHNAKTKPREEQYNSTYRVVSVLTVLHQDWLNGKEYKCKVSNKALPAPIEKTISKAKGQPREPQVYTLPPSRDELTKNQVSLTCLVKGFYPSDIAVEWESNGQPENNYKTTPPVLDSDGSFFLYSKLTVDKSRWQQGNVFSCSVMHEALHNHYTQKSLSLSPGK
T6 sequence (chain, as listed by the source mutant limits assumed): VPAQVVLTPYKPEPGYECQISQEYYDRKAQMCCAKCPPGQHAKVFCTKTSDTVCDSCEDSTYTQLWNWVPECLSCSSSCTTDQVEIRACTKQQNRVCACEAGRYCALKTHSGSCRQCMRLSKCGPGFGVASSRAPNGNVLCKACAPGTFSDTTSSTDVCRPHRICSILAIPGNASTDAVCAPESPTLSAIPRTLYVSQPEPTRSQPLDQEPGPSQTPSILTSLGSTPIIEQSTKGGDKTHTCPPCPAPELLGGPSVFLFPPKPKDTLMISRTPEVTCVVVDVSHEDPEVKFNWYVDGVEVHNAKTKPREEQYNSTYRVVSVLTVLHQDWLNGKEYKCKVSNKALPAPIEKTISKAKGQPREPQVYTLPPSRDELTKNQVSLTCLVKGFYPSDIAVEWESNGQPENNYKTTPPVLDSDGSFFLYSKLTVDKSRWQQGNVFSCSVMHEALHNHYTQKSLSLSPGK
T5 sequence (chain, as listed by the source mutant limits assumed): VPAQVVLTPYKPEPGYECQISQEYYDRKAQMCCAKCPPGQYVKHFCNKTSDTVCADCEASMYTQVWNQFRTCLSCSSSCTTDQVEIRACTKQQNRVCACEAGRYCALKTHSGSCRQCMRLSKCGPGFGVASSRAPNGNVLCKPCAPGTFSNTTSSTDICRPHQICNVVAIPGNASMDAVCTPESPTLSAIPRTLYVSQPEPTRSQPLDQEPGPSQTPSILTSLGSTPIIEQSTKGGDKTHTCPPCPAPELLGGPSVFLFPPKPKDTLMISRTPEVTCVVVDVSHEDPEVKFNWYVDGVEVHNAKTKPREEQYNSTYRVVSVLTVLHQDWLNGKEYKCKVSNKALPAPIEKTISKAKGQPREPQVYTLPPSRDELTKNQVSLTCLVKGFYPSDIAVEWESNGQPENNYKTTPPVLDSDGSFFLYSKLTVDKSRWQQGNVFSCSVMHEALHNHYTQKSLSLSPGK
T2 sequence (chain, as listed by the source mutant limits assumed): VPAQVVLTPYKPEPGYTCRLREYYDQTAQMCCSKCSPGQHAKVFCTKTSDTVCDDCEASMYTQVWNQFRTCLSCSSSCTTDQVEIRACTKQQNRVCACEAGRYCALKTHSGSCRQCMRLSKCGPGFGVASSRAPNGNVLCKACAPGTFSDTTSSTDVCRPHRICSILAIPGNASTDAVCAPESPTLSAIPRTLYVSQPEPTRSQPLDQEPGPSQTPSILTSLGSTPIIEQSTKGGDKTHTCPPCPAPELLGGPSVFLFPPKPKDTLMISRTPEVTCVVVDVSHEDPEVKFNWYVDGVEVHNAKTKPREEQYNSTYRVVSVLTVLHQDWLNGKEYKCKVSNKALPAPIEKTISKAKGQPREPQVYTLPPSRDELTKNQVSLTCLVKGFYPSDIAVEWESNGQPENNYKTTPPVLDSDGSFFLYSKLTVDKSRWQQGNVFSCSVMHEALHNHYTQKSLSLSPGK

EC50 [1]: 0.0508 nM
binding result (S16A): binds
EC50 (read off the curve) [10]: ~6 ng/mL
EC50 [11]: 0.671 nM
EC50 (read off the curve) (TNFR2): ~0.06 nM
IC50 [12]: 11 nM
IC50 [13]: 0.282 nM
B1: humanized antibody hu3-E (Hu3-H3/Hu3-L1) (antibody, human IgG1, kappa, V domains shown)
VH: QIQLVQSGAEVKKPGASVKVSCKASGYTFTTYGMSWVRQAPGQGLEWMGWIHTYSGVPTYADDFKGRFAFTLDTSTSTAYMELRSLRSDDTAVYYCARGLYGVDYWGQGTLVTVSS
VL: EIVMTQSPATLSLSPGERATLSCKASENVVTYVSWYQQKPGQAPRLLIYGASNRYTGIPARFSGSGSATDFTLTISSLQPEDFAVYYCGQSYTYPYTFGQGTKLEIKR
notes: Humanized form of 43B7A4, human IgG1/kappa
binding result [2]: no binding (tested: starting concentration 0.4 µg/mL)
binding result [3]: no binding (tested: starting concentration 0.4 µg/mL)
binding result [4]: no binding (tested: starting concentration 0.4 µg/mL)
binding result [5]: no binding (tested: starting concentration 0.4 µg/mL)
binding result [6]: no binding (tested: starting concentration 0.4 µg/mL)
binding result [7]: no binding (tested: starting concentration 0.4 µg/mL)
binding result [8]: no binding (tested: starting concentration 0.4 µg/mL)
binding result [9]: no binding (tested: starting concentration 0.4 µg/mL)
